According to paper PMC5339710, “Single-molecule studies reveal reciprocating of WRN helicase core along ssDNA during DNA unwinding”:

Assays:
[1] = biological target: T1, WRN helicase core (WRN512-1213) (Gallus gallus, UniProt D3KR65 512-1213); test: fluorescence polarization anisotropy; 0.2 mM ADP; 5 mM Mg2+; Hill coefficient 1; 20 mM Tris-HCl pH 8.0, 50 mM KCl, 5 mM MgCl2, 5 nM DNA, 25 C, 5 min equilibration; settings: protein: recombinant; tags: 6xHis-SUMO at N-terminus, cleaved with Ulp; label: fluorescein (FAM), position by colour only; single strand
T1 sequence: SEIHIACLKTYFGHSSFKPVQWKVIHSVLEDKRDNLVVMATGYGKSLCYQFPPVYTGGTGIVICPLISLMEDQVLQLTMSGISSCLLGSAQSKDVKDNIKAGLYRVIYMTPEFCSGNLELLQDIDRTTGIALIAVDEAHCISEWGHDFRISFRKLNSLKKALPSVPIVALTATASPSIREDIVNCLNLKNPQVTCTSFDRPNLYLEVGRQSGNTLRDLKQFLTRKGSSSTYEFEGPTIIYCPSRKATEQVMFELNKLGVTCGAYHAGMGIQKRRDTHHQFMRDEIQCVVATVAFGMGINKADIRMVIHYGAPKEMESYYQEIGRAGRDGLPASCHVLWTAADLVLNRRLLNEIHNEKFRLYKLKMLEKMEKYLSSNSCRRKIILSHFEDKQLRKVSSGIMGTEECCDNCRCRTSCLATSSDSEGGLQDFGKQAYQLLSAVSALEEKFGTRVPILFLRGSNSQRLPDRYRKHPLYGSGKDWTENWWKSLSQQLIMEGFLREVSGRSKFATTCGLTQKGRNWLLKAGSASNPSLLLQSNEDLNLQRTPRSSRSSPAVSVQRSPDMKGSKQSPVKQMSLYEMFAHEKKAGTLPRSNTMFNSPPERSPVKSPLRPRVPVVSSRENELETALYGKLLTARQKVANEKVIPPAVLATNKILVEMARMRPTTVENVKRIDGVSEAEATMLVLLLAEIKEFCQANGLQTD

[2] = biological target: T1, WRN helicase core (WRN512-1213); test: fluorescence polarization anisotropy; 0.2 mM ATPgS; 5 mM Mg2+; Hill coefficient 1; 20 mM Tris-HCl pH 8.0, 50 mM KCl, 5 mM MgCl2, 5 nM DNA, 25 C, 5 min equilibration; settings: protein: recombinant; tags: 6xHis-SUMO at N-terminus, cleaved with Ulp; label: fluorescein (FAM), position by colour only; single strand
[3] = biological target: T1, WRN helicase core (WRN512-1213); test: fluorescence polarization anisotropy; 5 mM Mg2+; no nucleotide stated; Hill coefficient 2; 20 mM Tris-HCl pH 8.0, 50 mM KCl, 5 mM MgCl2, 5 nM DNA, 25 C, 5 min equilibration; settings: protein: recombinant; tags: 6xHis-SUMO at N-terminus, cleaved with Ulp; label: fluorescein (FAM), position by colour only; blunt

Binder: CTCTGCTCGACGGATT (ssDNA) [16nt-FAM]
- Kd [1]: 141 ± 10.5 nM
- Kd [2]: 76.6 ± 4.2 nM

B1: 16bp-FAM (dsDNA)
DNA 1: CTCTGCTCGACGGATT
DNA 2: AATCCGTCGAGCAGAG
- Kd [3]: 32.2 ± 2.8 nM
